From the RNAGym collection of RNA variant scans (doi:10.7554/elife.90254) come the findings set out here.

Sequences and labels used below:
B1: LINE1-full (parent)
chain: UACGUAGGUGGUUUUCCCCUGAUAGUGCUAAGGGGGCCUGGAAGUUUGGACUGGGCAGAGCUCAACACAGCGUGGCAAAGUGGCUGUGGCUAGACUGCCUCUCUGGAUUCCUCGUCACUCAGCAGGGCAUCUCUGAGAGAAAUGCC

In this data set the parent is B1. The experiment in a line: self-cleavage, relative activity (ratio to wild type); higher = more cleavage; in vitro, sequencing; the parent is a self-cleaving ribozyme.
With U45C U115A, the self-cleavage came out at 1.49.
As to U47A U85G, the self-cleavage was 0.17.
For the variant U47A U85A, the self-cleavage worked out at 0.04.
Consider U46C U47A, for which the self-cleavage came out at 1.37.
For U46C U47C, the self-cleavage is 1.95.
The same measure for U47A C84U: 0.09.
On to U47A C84A, for which the self-cleavage came to 0.14.
As to U46A U96C, the self-cleavage turned out to be 0.19.
U45G A67G: the self-cleavage was 0.45.
The same measure for U47A U132C: 1.41; for U46C U134C: 1.53.
U46C U134A: the self-cleavage was 1.1.
For U47C U62A, the self-cleavage was 0.04.
As to U47C U62C, the self-cleavage was 0.12.
Regarding U47C A57U, the self-cleavage stood at 0.29.
The same measure for U46C A64G: 0.38; for U47C U52A: 1.72.
Take U46C A117C: the self-cleavage was found to be 2.44.
In the case of U47A G125C, the self-cleavage was 1.49.
The same measure for U47A G125A: 1.11.
Under U46A U132C stands 1.32; under U46C C56A, 0.28.
Consider U47A A65G, for which the self-cleavage was determined as 0.07.
Take U47C C84G: the self-cleavage was 0.11.
Regarding U47C C84U, the self-cleavage came out at 0.38.
Regarding U47C U96C, the self-cleavage was found to be 0.25.
The same measure for U47C U96G: 0.05; for U47C G53A: 1.78.
U46G A129G: the self-cleavage turned out to be 1.93.
Consider U46C C111A, for which the self-cleavage was 1.17.
Regarding U46C C111U, the self-cleavage was found to be 1.24.
In the case of U45C G97A, the self-cleavage is 0.07.
U46G G144U: the self-cleavage worked out at 0.95.
For U45C C131A, the self-cleavage is 1.67.
Turning to U46A A57U, the self-cleavage came out at 0.08.
Under U46A A57G stands 0.54; under U46A U104A, 0.9; under U46G U132A, 1.4.
For the variant U46C A92U, the self-cleavage turned out to be 0.76.
For the variant U47C U102A, the self-cleavage is 1.84.
With U47C U119A, the self-cleavage stood at 1.86.
Under U45C G89A stands 0.01; under U46G U115C, 1.69.
U46C G105A: the self-cleavage stood at 1.16.
As for U45C G126U, the self-cleavage was 1.34.
U47C A138U: the self-cleavage came to 1.52.
With U46A C68U, the self-cleavage stood at 0.07.
Consider U46C U115G, for which the self-cleavage is 0.
Turning to U46C U115A, the self-cleavage is 1.58.
As to U47A A121C, the self-cleavage stood at 1.49.
As to U45C G54A, the self-cleavage was found to be 0.43.
Under U47A C56U stands 0.14; under U46C C66U, 0.02; under U47A C61A, 0.03.
With U47A C99A, the self-cleavage is 0.48.
Under U47A C99U stands 0.3.
Regarding U45G A92G, the self-cleavage was 0.09.
Take U46C U62A: the self-cleavage came to 0.05.
For the variant U46A U52G, the self-cleavage is 1.33.
Under U46A U52C stands 1.56; under U46A A69G, 0.36; under U46A A69U, 0.05.
For U47A U104A, the self-cleavage was determined as 0.59.
Consider U46A U91C, for which the self-cleavage amounted to 0.63.
As to U47A A138U, the self-cleavage turned out to be 1.59.
For the variant U47A A107G, the self-cleavage came out at 0.95.
Turning to U46A A129U, the self-cleavage came out at 0.78.
As for U47C A92U, the self-cleavage was determined as 0.77.
With U45G G49A, the self-cleavage is 1.25.
Turning to U47C G93U, the self-cleavage was determined as 0.04.
Consider U46C C145U, for which the self-cleavage amounted to 1.58.
Under U47C A77U stands 1.2; under U47C A77G, 2.3; under U47A U73A, 1.11.
For the variant U47A U73C, the self-cleavage was determined as 1.45.
Turning to U46C U91A, the self-cleavage was 0.53.
The same measure for U45C U109A: 1.5.
For U47C G114A, the self-cleavage is 1.66.
Take U45C G72A: the self-cleavage was 1.25.
U47A U109A: the self-cleavage amounted to 1.74.
The same measure for U46C A107G: 1.06; for U46C A107U: 1.53.
With U45C G74U, the self-cleavage stood at 1.35.
As for U47A A67U, the self-cleavage was determined as 0.12.
U46C U109C: the self-cleavage was determined as 1.41.
For U47C C63U, the self-cleavage was determined as 0.37.
On to U45G C68U, for which the self-cleavage turned out to be 0.12.
U47C A121G: the self-cleavage is 1.92.
Under U47C A121C stands 1.05; under U47C A121U, 1.52; under U47A A117G, 1.38.
As to U47A A117C, the self-cleavage was found to be 1.32.
For the variant U47A A117U, the self-cleavage amounted to 1.25.
With U47A U112A, the self-cleavage is 0.7.
Consider U47A U112C, for which the self-cleavage is 1.15.
The same measure for U47A A94G: 0.23; for U47A G82A: 2.27.
Consider U47A U52A, for which the self-cleavage amounted to 1.84.
Under U46A G55A stands 0.24.
In the case of U47C U115C, the self-cleavage worked out at 2.06.
As for U45G U96C, the self-cleavage was determined as 0.05.
Under U47A G106A stands 1.3; under U46G U112A, 1.47; under U46G A117G, 2.26.
In the case of U45G G106U, the self-cleavage is 0.64.
In the case of U45G G106C, the self-cleavage was 0.92.
On to U47C A136C, for which the self-cleavage worked out at 1.09.
On to U47C A136U, for which the self-cleavage is 1.24.
As to U46C U85G, the self-cleavage was determined as 0.37.
On to U46C U85C, for which the self-cleavage was 0.35.
Take U46C A141G: the self-cleavage was 1.41.
Regarding U46G U91C, the self-cleavage is 0.74.
As to U47C A117C, the self-cleavage worked out at 1.96.
Consider U46C G54A, for which the self-cleavage is 1.21.
With U45C U112G, the self-cleavage worked out at 1.31.
Regarding U46A G137A, the self-cleavage is 0.98.
U46A A141U: the self-cleavage was found to be 1.01.
On to U46A A141G, for which the self-cleavage is 1.36.
Take U45G A141G: the self-cleavage was determined as 1.32.
For U47C U100A, the self-cleavage worked out at 1.51.
As to U47C U85G, the self-cleavage worked out at 0.32.
The same measure for U45C U143C: 1.7; for U45C U143A: 1.39.
In the case of U46A A140G, the self-cleavage was determined as 0.9.
Under U46A A140U stands 1.12; under U45C G53A, 1.64; under U47C C128U, 1.42.
With U47A A69G, the self-cleavage worked out at 0.52.
On to U46A A136G, for which the self-cleavage was found to be 1.48.
Regarding U46A U62C, the self-cleavage is 0.05.
On to U45C U132A, for which the self-cleavage was 1.96.
Turning to U45C U132C, the self-cleavage is 1.51.
With U47A C120A, the self-cleavage is 1.36.
For U46C A50U, the self-cleavage turned out to be 1.26.
For the variant U46G A140G, the self-cleavage stood at 1.78.
In the case of U47C U73G, the self-cleavage amounted to 1.38.
For U47C U73C, the self-cleavage was 1.55.
Consider U47C U73A, for which the self-cleavage is 2.06.
For U47C U109C, the self-cleavage came to 1.61.
Regarding U47C U109A, the self-cleavage worked out at 1.6.
Turning to U47C A50G, the self-cleavage amounted to 1.14.
As to U47C A50C, the self-cleavage came out at 0.94.
Regarding U47A C128U, the self-cleavage came to 1.39.
U47A G88A: the self-cleavage was found to be 0.01.
The same measure for U45G A121G: 0.46; for U45G A121U: 1.82; for U45G A121C: 2.14.
Under U46G A79U stands 2.15.
Turning to U45G A136G, the self-cleavage turned out to be 0.94.
The same measure for U46C A136U: 1.44.
The same measure for U47C U130A: 1.31; for U46C A69U: 0.07.
As to U46C A69G, the self-cleavage was 0.85.
Regarding U46C A69C, the self-cleavage amounted to 0.
With U46G A78G, the self-cleavage came to 0.6.
For U45G A57U, the self-cleavage was 0.18.
Take U47C C111A: the self-cleavage came out at 1.79.
As for U47C G105A, the self-cleavage came out at 1.45.
As for U47C A78U, the self-cleavage was 1.89.
Consider U47C A78C, for which the self-cleavage was determined as 1.96.
U45C U96A: the self-cleavage came to 0.07.
Consider U47C G127A, for which the self-cleavage came out at 1.31.
With U47C G127C, the self-cleavage is 1.23.
Turning to U45G U62C, the self-cleavage was determined as 0.02.
Under U46A A79G stands 1.06; under U46A A79U, 2.16.
Under U47C A142G stands 1.5.
